Laboratory results taken from publication PMC3888415.
Read-outs that look alike come from different tables or passages of the source.

What was measured:
[1] = target: human α-thrombin (human); experiment: discontinuous thrombin inhibition assay (second order rate constant k2); pseudo first order conditions; purified API proteins and thrombin; mean ± SD of 5 determinations
[2] = target: human α-thrombin (human); experiment: ELISA; thrombin capture assay: thrombin (5 µg/ml) coated on microtiter wells in PBS; cleared bacterial lysates applied neat for one hour; detected with HRP-conjugated sheep anti-human API; OD 450 nm, for P7–P3 variants normalized to API M358R lysate
[3] = target: human α-thrombin (human); experiment: as above; remark: listed apart in the source

Row | Substance | k2 (second order rate constant of thrombin inhibition) (mol^−1 sec^−1) [1] | relative OD450 versus API M358R [2] | relative OD450 versus API M358R [3]
1 | API M358R P7–P3 variant DVTVS (from UniProt P01009 25-418) | – | 1.42 | –
2 | recombinant hexahistidine-tagged API M358R (from UniProt P01009 25-418) (natural protein) | 487000 | – | –
3 | API M358R P7–P3 variant EATVS (from UniProt P01009 25-418) | 617000 | 1.54 | –
4 | API M358R P7–P3 variant QVKPA (from UniProt P01009 25-418) | – | 1.37 | –
5 | API M358R P7–P3 variant DAFAA (from UniProt P01009 25-418) | – | 1.59 | –
6 | API M358R P7–P3 variant DLTVS (plaque consensus) (from UniProt P01009 25-418) | 529000 | – | –
7 | API M358R P7–P3 variant AAFVS (from UniProt P01009 25-418) | 1.01e+06 | 3.01 | –
8 | API M358R P7–P3 variant FHTLG (from UniProt P01009 25-418) | – | 2.13 | –
9 | API M358R P7–P3 variant LATVS (lysate consensus) (from UniProt P01009 25-418) | 765000 | – | 1.5
10 | API M358R P7–P3 variant LTTLR (from UniProt P01009 25-418) | 896000 | 2.09 | –
11 | API M358R P7–P3 variant HATVS (from UniProt P01009 25-418) | 504000 | 1.99 | –
12 | API M358R P7–P3 variant LINPI (from UniProt P01009 25-418) | – | 1.54 | –
13 | API M358R P7–P3 variant LSELA (from UniProt P01009 25-418) | – | 1.28 | –
14 | API M358R P7–P3 variant LAITS (from UniProt P01009 25-418) | – | 1.45 | –
15 | API M358R P7–P3 variant QATFL (from UniProt P01009 25-418) | 593000 | 1.91 | –

The remaining lines, values ahead:

Row | k2 (second order rate constant of thrombin inhibition) (mol^−1 sec^−1) [1] | relative OD450 versus API M358R [2] | relative OD450 versus API M358R [3] | Substance
16 | 1e+06 | 1.64 | 1.7 | API M358R P7–P3 variant DITMA (from UniProt P01009 25-418)
17 | 786000 | – | 2.1 | API M358R P7–P3 variant LHTLG (from UniProt P01009 25-418)
18 | 783000 | 2.61 | – | API M358R P7–P3 variant EISLQ (from UniProt P01009 25-418)
19 | – | 1.51 | – | API M358R P7–P3 variant EAHFR (from UniProt P01009 25-418)
20 | 176000 | – | – | API M358R P7–P3 variant NLIPT (from UniProt P01009 25-418)
21 | – | 1.46 | – | API M358R P7–P3 variant ISSAN (from UniProt P01009 25-418)
22 | 895000 | 1.89 | – | API M358R P7–P3 variant LASMR (from UniProt P01009 25-418)
23 | – | 1.49 | – | API M358R P7–P3 variant TVSVS (from UniProt P01009 25-418)
24 | – | 1.36 | – | API M358R P7–P3 variant TLSAV (from UniProt P01009 25-418)
25 | – | 1.9 | – | API M358R P7–P3 variant VTTIT (from UniProt P01009 25-418)
